Literature values as cited in publication PMC2888830.

Target: integrin αIIbβ3 (Homo sapiens) (UniProt P08514)

Substance: disagregin (from UniProt P36235)
- Kd: 40 nM
